In publication PMC6821171:

Target: TF-LYAR-FL (FLAG) (human) (UniProt Q9NX58)
Test: EMSA
Conditions: EMSA: 10 mM Tris-HCl pH 7.4, 50 mM KCl, 1 mM DTT, 2.5 % (further components not shown in material), 20 µl, 30 min, room temperature

Sequence: GGTATATCTTTCGCTCCGAGTCGGCATTTTGGGCCGCCGGGTTATTGCTGACACGCTGTCCTCTGGCGACCTGTCGTC (double strand) [H0 rDNA promoter probe (H0-BT)]
- binding: no binding
